Test results taken from patent US20220112276A1 (Janssen / Centocor, published 2022).
Each block holds one binder with its values, some of them ahead of it.

Experiments:
[1] = biological target: T1, recombinant human pIgR (hpIgR) (human, UniProt P01833 19-638, limits assumed); test: ELISA, periplasmic VHH, BSA subtracted
T1 construct: probably the ECD
Summary of the method: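 His-tagged VHH in periplasmic extracts (osmotic shock, non-suppressor E. coli) were tested by ELISA for binding to pIgR. Bound nanobody was detected with polyclonal anti-alpaca VHH antibody in the initial screen and anti-VHH antibody on retest. Signal on BSA, run in parallel, was subtracted from the pIgR signal.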

[2] = biological target: T2, human pIgR extracellular domain (ECD) (human, UniProt P01833 19-638); test: SPR, VHH captured by anti-Fc, ECD analyte
T2 construct: Bought from R&D Systems (Cat 2717-PG-050); also called hpIgR ECD
T2 sequence (P01833 other isoform, or with tags, fused parts or gaps): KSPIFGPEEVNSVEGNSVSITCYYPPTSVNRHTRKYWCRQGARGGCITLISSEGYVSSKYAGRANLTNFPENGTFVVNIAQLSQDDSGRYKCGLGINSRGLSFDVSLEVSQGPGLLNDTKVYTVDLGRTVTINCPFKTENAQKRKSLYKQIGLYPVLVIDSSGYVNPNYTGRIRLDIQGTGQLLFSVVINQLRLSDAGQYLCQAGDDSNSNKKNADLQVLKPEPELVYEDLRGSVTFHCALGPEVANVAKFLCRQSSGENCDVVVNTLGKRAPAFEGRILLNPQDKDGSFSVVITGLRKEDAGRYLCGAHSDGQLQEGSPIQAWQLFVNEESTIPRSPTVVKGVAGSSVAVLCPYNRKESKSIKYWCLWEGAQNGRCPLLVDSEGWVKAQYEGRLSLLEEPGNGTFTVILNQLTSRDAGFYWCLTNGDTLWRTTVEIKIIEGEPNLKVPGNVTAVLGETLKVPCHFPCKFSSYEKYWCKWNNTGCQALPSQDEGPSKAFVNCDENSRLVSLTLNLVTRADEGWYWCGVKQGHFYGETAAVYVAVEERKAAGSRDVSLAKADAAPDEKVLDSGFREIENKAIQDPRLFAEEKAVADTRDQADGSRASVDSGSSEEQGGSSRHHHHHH
Experimental: In an assay, two flow cells of the SPR were used, in which the flow cell 1 ran the buffer reference, and the flow cell 2 ran the analyte. […] The HBSP (GE) buffer was followed at a flow rate of 30 μL/min. Then, the VHHs were captured on the anti-human Fc protein surface at 0.5 ug/ml (˜200-300 RU) on the flow cell 2. The running buffer was changed to HBSP with 100 ug/ml BSA after the capture. Next, the pIgR extracellular domains were used as analyte and loaded in a series of concentrations, starting at 30 nM with further 3-fold dilution series.
The extracellular domains were prepared as follows: cynomolgus monkey and rat extracellular domains were produced and characterized in house; mouse and human pIgR extracellular domains were purchased from R&D Systems (Cat #2800-PG-050 & 2717-PG-050 respectively). The pIgR extracellular domains were injected from low to high concentration using a single-cycle kinetics method. The off-rate was monitored at 30 minutes after the last or highest concentration injection. The reference run was completed under the same conditions except that the pIgR injection was replaced by buffer injection.
The raw data were processed by subtracting two sets of reference data from the response data: (1) reference flow cell 1 subtracted from sample flow cell 2; and (2) buffer blank run subtracted from experimental run. The processed data at all concentrations for each VHH were globally fit to a 1:1 simple Langmuir binding model to extract estimates of the kinetic constants (kₒₙ, koff) and affinity constants (KD).

T1 sequence (P01833 19-638 limits assumed): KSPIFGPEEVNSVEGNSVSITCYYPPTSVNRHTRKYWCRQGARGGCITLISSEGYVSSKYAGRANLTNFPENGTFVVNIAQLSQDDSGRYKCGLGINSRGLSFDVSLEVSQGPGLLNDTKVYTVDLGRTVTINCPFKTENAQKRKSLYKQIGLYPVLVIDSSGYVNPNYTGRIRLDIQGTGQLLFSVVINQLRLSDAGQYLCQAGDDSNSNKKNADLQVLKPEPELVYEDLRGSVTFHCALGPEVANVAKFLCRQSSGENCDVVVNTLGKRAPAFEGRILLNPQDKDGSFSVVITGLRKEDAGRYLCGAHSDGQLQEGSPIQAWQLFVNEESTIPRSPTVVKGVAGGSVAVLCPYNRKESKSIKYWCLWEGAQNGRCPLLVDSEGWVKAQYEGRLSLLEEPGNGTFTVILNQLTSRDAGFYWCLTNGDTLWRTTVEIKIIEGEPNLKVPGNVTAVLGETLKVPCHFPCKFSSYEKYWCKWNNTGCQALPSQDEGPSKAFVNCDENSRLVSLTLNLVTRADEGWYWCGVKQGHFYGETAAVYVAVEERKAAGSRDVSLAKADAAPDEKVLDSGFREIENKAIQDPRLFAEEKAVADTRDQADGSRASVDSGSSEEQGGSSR

- ELISA (OD) [1]: 1.83 OD
B1: 01H10R2 His-tagged VHH (VHH)
VHH: QVQLVESGGGLVQPGGSLRLSCAASGRTSSISTMGWFRQAPGKEREFVTAIRWSGSSSYKYYADSVKGRFTISRDNARNTVYLQMNSLKPEDTAVYYCAAQMSLWRDPREIDYDYWGQGTLVTVSS

- Kd [2]: 0.15 nM
B2: 03H01R3 VHH Mono-Fc (Fc fusion)
chain: EVQLVESGGGLVQAGGSLRLSCAASGRTSSIYNMGWFRQAPGQEREFVAAIHWGGGRTYYADSVKGRFTISRDNAKNTVYLQMNSLEPGDTANYYCAARRAPELLDDYKQKPEEIGTYHYWGQGTQVTVSSSPAPELLGGPSVFLFPPKPKDTLMISRTPEVTCVVVDVSHEDPEVKFNWYVDGVEVHNAKTKPREEQYNSTYRVVSVLTVLHQDWLNGKEYKCKVSNKALPAPIEKTISKAKGQPREPQVYTKPPSREEMTKNQVSLSCLVKGFYPSDIAVEWESNGQPENNYKTTVPVLDSDGSFRLASYLTVDKSRWQQGNVFSCSVMHEALHNHYTQKSLSLSPGK

- Kd [2]: 1.97 nM
B3: 03A08R3 VHH Mono-Fc (Fc fusion)
chain: QVQLVESGGGLVQAGGSLRLSCAASGRTSSIYGMGWFRQAPGKEREFVAAISWSAGRTYHADSVKGRFTISRDNAKNMVYLQMDKMKPGDTAVYYCAARRAPELLSDYTQKPEEIGTYHYWGQGTLVTVSSSPAPELLGGPSVFLFPPKPKDTLMISRTPEVTCVVVDVSHEDPEVKFNWYVDGVEVHNAKTKPREEQYNSTYRVVSVLTVLHQDWLNGKEYKCKVSNKALPAPIEKTISKAKGQPREPQVYTKPPSREEMTKNQVSLSCLVKGFYPSDIAVEWESNGQPENNYKTTVPVLDSDGSFRLASYLTVDKSRWQQGNVFSCSVMHEALHNHYTQKSLSLSPGK

- ELISA (OD) [1]: 2.38 OD
B4: 02B12R3 His-tagged VHH (VHH)
VHH: QVQLVESGGGWVQTGGSLRLSCAASGRTVSSYYMGWFRQTPGKEREFVAAISWVGSSTYKYYTDSAKGRFTISRDNAKNTVYLQMNSLKPEDTAVYYCAARPRVGDPRSRYDDDNWGQGTQVTVSS

- Kd [2]: 0.275 nM
B5: 01C02R2 VHH Mono-Fc (Fc fusion)
chain: EVQLVESGGGLVQAGGSLRLSCAASGRSYAMGWFRQAPGKEREFAAAISWSGSRTYYADAVKGRFTISRDNAKNTVYLQMNSLKPEDTAVYYCAADPDGTVVASSGWTNSYEYGYWGQGTLVTVSSSPAPELLGGPSVFLFPPKPKDTLMISRTPEVTCVVVDVSHEDPEVKFNWYVDGVEVHNAKTKPREEQYNSTYRVVSVLTVLHQDWLNGKEYKCKVSNKALPAPIEKTISKAKGQPREPQVYTKPPSREEMTKNQVSLSCLVKGFYPSDIAVEWESNGQPENNYKTTVPVLDSDGSFRLASYLTVDKSRWQQGNVFSCSVMHEALHNHYTQKSLSLSPGK

- ELISA (OD) [1]: 2.05 OD
B6: 02C10R3 His-tagged VHH (VHH)
VHH: EVQLVESGGGLVQPGGSLRLSCAASGFTFSSFTMTWFRQAPGKGLGWVSRISSDGTGTNYADSVKGRFTISRDNAKNTLYLRMNSLKPEDTAVYYCAIADDSSTRGQGTLVTVSS

- Kd [2]: 10.9 nM
B7: 01F03R3LS VHH Mono-Fc (Fc fusion)
chain: EVQLVESGGGLVQAGGSLRLSCAASGRTINGYVMGWFRQAPGEEREFVARIDWSGSSTDYADSVKGRFTISRDNAKITVYLQMNSLKPEDTAVYYCAGSAYYSGYVTHRDFGSWGQGTLVTVSSSPAPELLGGPSVFLFPPKPKDTLMISRTPEVTCVVVDVSHEDPEVKFNWYVDGVEVHNAKTKPREEQYNSTYRVVSVLTVLHQDWLNGKEYKCKVSNKALPAPIEKTISKAKGQPREPQVYTKPPSREEMTKNQVSLSCLVKGFYPSDIAVEWESNGQPENNYKTTVPVLDSDGSFRLASYLTVDKSRWQQGNVFSCSVMHEALHNHYTQKSLSLSPGK

- Kd [2]: 2.76 nM
B8: 01D09R3 VHH Mono-Fc (Fc fusion)
chain: QVQLVESGGGLVQAGGSLRLSCAASGRTFSVYAMGWFRQAPGKERQFVAAITWSGGSTSYADSVKGRFTISRDNAKNTVYLQMNILKPEDTAVYYCAAATNPYFSDYYPDLKYEFDYWGQGTLVTVSSSPAPELLGGPSVFLFPPKPKDTLMISRTPEVTCVVVDVSHEDPEVKFNWYVDGVEVHNAKTKPREEQYNSTYRVVSVLTVLHQDWLNGKEYKCKVSNKALPAPIEKTISKAKGQPREPQVYTKPPSREEMTKNQVSLSCLVKGFYPSDIAVEWESNGQPENNYKTTVPVLDSDGSFRLASYLTVDKSRWQQGNVFSCSVMHEALHNHYTQKSLSLSPGK

- Kd [2]: 1.29 nM
B9: 02G04R3 VHH Mono-Fc (Fc fusion)
chain: QVQLVESGGGLVQAGGSLRLSCAANGRAANAYAVGWFRQAPGKEREFVAHIRWNGGRTAYADSVKGRFTISRDDAKNTVYLQMDSLKPEDTAVYYCAEDTNPDAFGDLRLPSEYEYWGQGTQVTVSSSPAPELLGGPSVFLFPPKPKDTLMISRTPEVTCVVVDVSHEDPEVKFNWYVDGVEVHNAKTKPREEQYNSTYRVVSVLTVLHQDWLNGKEYKCKVSNKALPAPIEKTISKAKGQPREPQVYTKPPSREEMTKNQVSLSCLVKGFYPSDIAVEWESNGQPENNYKTTVPVLDSDGSFRLASYLTVDKSRWQQGNVFSCSVMHEALHNHYTQKSLSLSPGK

- Kd [2]: 1.16 nM
B10: 01D04R3LS VHH Mono-Fc (Fc fusion)
chain: EVQLVESGGGLVQAGGSLRLSCAASGRTFRSYAMGWFRQAPGKEREFVADISWRGGRLYYADSVKGRFTISRDNAKNTVYLQMNSLKPEDTAVYYCAATGDQPAFTTAQGMGAMLEYDYWGQGTLVTVSSSPAPELLGGPSVFLFPPKPKDTLMISRTPEVTCVVVDVSHEDPEVKFNWYVDGVEVHNAKTKPREEQYNSTYRVVSVLTVLHQDWLNGKEYKCKVSNKALPAPIEKTISKAKGQPREPQVYTKPPSREEMTKNQVSLSCLVKGFYPSDIAVEWESNGQPENNYKTTVPVLDSDGSFRLASYLTVDKSRWQQGNVFSCSVMHEALHNHYTQKSLSLSPGK

- ELISA (OD) [1]: 1.11 OD
B11: 01H08R3 His-tagged VHH (VHH)
VHH: QVQLVESGGGSVQTGGSLRLSCTASGRTFSNYGMGWFRQAPGKEREFVAGITRSGRTTYYYYADAVKGRFTIPRDNADNTIYLQMDSMKPDDTAVYYCAARQGENNYDPRSGSAYNYWGPGTQVTVSS

- ELISA (OD) [1]: 1.54 OD
B12: 01H10R3 His-tagged VHH (VHH)
VHH: QVQLVESGGGLVQAGGSLRLSCAASGRAFSQYTMGWFRQAPGKEREFVTAIRWSGGSIYKYYADSVKGRFTISGDNARNTVDLQMNSLKPEDTAVYYCAARMSPWGDPRGNEYDYWGQGTLVTVSS

- ELISA (OD) [1]: 1.98 OD
B13: 01A09R3L His-tagged VHH (VHH)
VHH: EVQLVESGGGVVQAEDSLRLSCAASGLSFSLSRMGWFRQAPGKEREFVATIEWSGRSTYKYYDDSVKGRFAVSGDNTKNTMNLQMKGLNLEDTGVYYCAANPNNYGDPRTPGAYQYWGQGTQVTVSS

- Kd [2]: 2.09 nM
B14: 02C10R3 VHH Mono-Fc (Fc fusion)
chain: EVQLVESGGGLVQPGGSLRLSCAASGFTFSSFTMTWFRQAPGKGLGWVSRISSDGTGTNYADSVKGRFTISRDNAKNTLYLRMNSLKPEDTAVYYCAIADDSSTRGQGTLVTVSSSPAPELLGGPSVFLFPPKPKDTLMISRTPEVTCVVVDVSHEDPEVKFNWYVDGVEVHNAKTKPREEQYNSTYRVVSVLTVLHQDWLNGKEYKCKVSNKALPAPIEKTISKAKGQPREPQVYTKPPSREEMTKNQVSLSCLVKGFYPSDIAVEWESNGQPENNYKTTVPVLDSDGSFRLASYLTVDKSRWQQGNVFSCSVMHEALHNHYTQKSLSLSPGK
